# Test results as given in PMC1390689.
# T1: GSThPif1ΔN (Homo sapiens, UniProt Q9H611 167-641)
# T1 sequence: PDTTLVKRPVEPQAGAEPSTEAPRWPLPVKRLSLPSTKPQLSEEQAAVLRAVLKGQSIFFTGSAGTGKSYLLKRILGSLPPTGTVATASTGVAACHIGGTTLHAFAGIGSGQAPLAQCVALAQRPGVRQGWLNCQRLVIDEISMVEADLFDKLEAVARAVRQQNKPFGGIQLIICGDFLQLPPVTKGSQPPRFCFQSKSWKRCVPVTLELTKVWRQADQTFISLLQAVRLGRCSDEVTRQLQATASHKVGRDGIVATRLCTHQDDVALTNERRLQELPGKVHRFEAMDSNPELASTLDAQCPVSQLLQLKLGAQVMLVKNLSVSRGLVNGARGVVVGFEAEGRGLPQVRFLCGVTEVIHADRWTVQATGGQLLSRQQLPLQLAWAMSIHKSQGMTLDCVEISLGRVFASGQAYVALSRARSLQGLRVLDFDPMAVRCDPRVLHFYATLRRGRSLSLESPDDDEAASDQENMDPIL
# Target: T1, GSThPif1ΔN
# Experiment: EMSA
binder,measurement,value
TTAGGGTTAGGGTTAGGG (ssDNA) [tel18],binding result,binds
